Like-named read-outs stand apart in the source and are kept apart here.
What was measured:
[1] = molecular target: T1, histidine-tagged human Siglec-7 (NovoProtein) (human, UniProt Q9Y286 19-353); test: BLI (ForteBio), antibody captured
T1 construct: Bought protein; also called recombinant human Siglec-7; recombinant Siglec-7; not shown: histidine tag
Procedure: (§1) In this assay, the humanized antibodies were compared directly to S7AB. Briefly, the antibodies were captured on anti-human or anti-mouse IgG Fc Biosensors (Pall ForteBio). Varying concentrations (0-100 nM) of histidine-tagged human Siglec-7 (NovoProtein) were then bound to the captured anti-Siglec-7 surface (200 s association time, 900 s dissociation time). Multi-concentration kinetic analysis was performed using a 1:1 interaction model to extract association and dissociation rate constants (kₐ and kd, respectively) for each antibody. Apparent affinity constants (KD) were calculated from the ratio kd/kₐ.

[2] = molecular target: T1, histidine-tagged human Siglec-7 …; test: BLI, antibody captured
How it was run: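 Antibodies captured on anti-human or anti-mouse IgG Fc biosensors; His-tagged human Siglec-7 flowed at 0–100 nM (200 s association, 900 s dissociation). ka and kd from 1:1 multi-concentration fit; apparent KD = kd/ka.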

[3] = molecular target: T2, human Siglec-7 on primary human monocyte-derived dendritic cells (human, UniProt Q9Y286 19-467); test: flow cytometry, primary human dendritic cells
T2 construct: Endogenous Siglec-7 on dendritic cells differentiated from monocytes of healthy human donors
T2 sequence (Q9Y286 19-467): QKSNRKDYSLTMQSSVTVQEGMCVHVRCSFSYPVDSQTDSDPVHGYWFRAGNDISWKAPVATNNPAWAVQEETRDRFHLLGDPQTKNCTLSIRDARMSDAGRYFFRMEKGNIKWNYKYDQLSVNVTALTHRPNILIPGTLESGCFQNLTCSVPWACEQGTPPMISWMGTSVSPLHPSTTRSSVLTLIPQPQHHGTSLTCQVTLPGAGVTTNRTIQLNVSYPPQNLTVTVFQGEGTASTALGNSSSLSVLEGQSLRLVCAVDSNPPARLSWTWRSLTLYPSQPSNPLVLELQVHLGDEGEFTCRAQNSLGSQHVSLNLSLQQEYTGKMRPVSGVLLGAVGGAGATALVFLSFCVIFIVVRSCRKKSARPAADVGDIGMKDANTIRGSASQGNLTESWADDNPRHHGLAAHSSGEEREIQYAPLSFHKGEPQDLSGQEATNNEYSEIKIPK
Procedure: The 12 humanized antibodies of S7AB were evaluated for binding to primary dendritic cells by flow cytometry. Monocytes were isolated from blood from healthy human donors using the RosetteSep™ monocyte isolation antibody cocktail (StemCell Technologies). The isolated monocytes were differentiated into dendritic cells with 100 ng/mL GM-CSF and 100 ng/mL IL-4 (Peprotech). Dendritic cells were incubated with dilutions of the anti-Siglec-7 antibodies for 30 minutes on ice in the dark, followed by a 30-minute incubation with a fluorescently-conjugated anti-human IgG secondary antibody. Cells were washed twice in FACS buffer (PBS+2% FBS, 2 mM EDTA), and flow cytometry was performed on a BD FACS Canto. Data were analyzed using FlowJo software (Ashland, Oreg.).

[4] = molecular target: T2, human Siglec-7 on primary human …; test: cell-based or functional assay
[5] = molecular target: T1, histidine-tagged human Siglec-7 …; test: BLI (ForteBio), antibody captured; Table 2 experiment; antibody captured on anti-IgG Fc Biosensors, 0-100 nM His-tagged Siglec-7
Procedure: as §1

[6] = molecular target: T2, human Siglec-7 on primary human …; test: cell-based or functional assay; remark: listed apart in the source

T1 sequence (Q9Y286 19-353 limits assumed): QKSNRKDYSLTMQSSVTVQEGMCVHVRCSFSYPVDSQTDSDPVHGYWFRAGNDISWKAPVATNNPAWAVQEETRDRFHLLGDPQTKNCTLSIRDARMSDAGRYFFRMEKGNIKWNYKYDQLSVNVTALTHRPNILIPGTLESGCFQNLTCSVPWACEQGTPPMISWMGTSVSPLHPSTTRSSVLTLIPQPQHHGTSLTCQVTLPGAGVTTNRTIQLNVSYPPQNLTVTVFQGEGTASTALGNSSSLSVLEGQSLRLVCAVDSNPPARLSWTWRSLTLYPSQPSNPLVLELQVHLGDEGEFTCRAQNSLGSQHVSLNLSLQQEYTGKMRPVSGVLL

| koff [1] | kon [1] | Kd [2] | koff [2] | kon [2] | EC50 [3] | Fold increase in potency compared to Chimeric Ab [4] | Maximal downregulation (% Siglec-7 remaining) [4] | Receptor downregulation, (EC50) (pM) [4] | Kd [5] | Receptor downregulation, (EC50) (pM) [6] | Kd [1] | Binder |
| --- | --- | --- | --- | --- | --- | --- | --- | --- | --- | --- | --- | --- |
| 0.000125 s⁻¹ | 145000 M⁻¹ s⁻¹ | 1.05 nM | 0.000174 s⁻¹ | 166000 M⁻¹ s⁻¹ | 1.5 nM | 3 fold | 18.3% | 340 pM | 0.86 nM | 395 pM |  | S7AB-H8 (antibody, V domains shown, also called parental humanized antibody) VH: QVQLVQSGAEVKKPGASVKISCKASGYAFTNCWMNWVRQAPGQGLEWIGRIFPGNGHTNYAQKFQGRATLTEDTSTSTAYMELSSLRSEDTAVYYCARDYSDYYFDYWGQGTLVTVSS VL: DIQMTQSPSSLSASVGDRVTITCRASQDINTYLNWYQQKPGKAPKLLIYYTSRLHSGVPSRFSGSGSGTDYTLTISSLQPEDFATYYCQQGNTLPWTFGQGTKLEIK |
| 0.000152 s⁻¹ | 150000 M⁻¹ s⁻¹ |  |  |  | 5.6 nM |  |  |  |  | 447 pM | 1.01 nM | S7AB-H12 (antibody, V domains shown) VH: QVQLVQSGAEVKKPGASVKISCKASGYAFTNCWMNWVRQAPGQGLEWIGRIFPGNGHTNYAQKFQGRATLTEDTSTSTAYMELSSLRSEDTAVYYCARDYSDYYFDYWGQGTLLTVSS VL: DVQMTQSPSSLSASVGDRVTITCRASQDINTYLNWYQQKPGKAPKLLIYYTSRLHSGVPSRFSGSGSGTDYTLTISSLQPEDFATYYCQQGNTLPWTFGQGTKLEIK |

Reference: patent US20210246204A1 (Alector, published 2021)
